Data as given in PMC12009414.

B1: FAM-9T + MH (dsDNA)
DNA 1: CCAACCGACCACACCCACCACCCTACCGCCTTTTTTTTTCCCGGG
DNA 2: GGCGGTAGGGTGGTGGGTGTGGTCGGTTGG
B2: FAM-11T + MH (dsDNA)
DNA 1: CCAACCGACCACACCCACCACCCTACCGCCTTTTTTTTTTTCCCGGG
DNA 2: B1 DNA 2
B3: FAM-15T no MH (dsDNA)
DNA 1: CCAACCGACCACACCCACCACCCTACCGCCTTTTTTTTTTTTTTTTT
DNA 2: B1 DNA 2
B4: 9-nt poly(T) with MH (unlabeled) (dsDNA)
DNA 1: B1 DNA 1
DNA 2: B1 DNA 2
B5: 15-nt poly(T) without MH (unlabeled) (dsDNA)
DNA 1: CCAACCGACCACACCCACCACCCTACCGCCTTTTTTTTTTTTTTT
DNA 2: B1 DNA 2
B6: 11-nt poly(T) with MH (unlabeled) (dsDNA)
DNA 1: B2 DNA 1
DNA 2: B1 DNA 2

What was measured:
[1] = target: T1, Polθ-hel WT (DNA polymerase theta helicase domain) (human, UniProt O75417 1-894); test: fluorescence anisotropy
T1 sequence (O75417 1-894): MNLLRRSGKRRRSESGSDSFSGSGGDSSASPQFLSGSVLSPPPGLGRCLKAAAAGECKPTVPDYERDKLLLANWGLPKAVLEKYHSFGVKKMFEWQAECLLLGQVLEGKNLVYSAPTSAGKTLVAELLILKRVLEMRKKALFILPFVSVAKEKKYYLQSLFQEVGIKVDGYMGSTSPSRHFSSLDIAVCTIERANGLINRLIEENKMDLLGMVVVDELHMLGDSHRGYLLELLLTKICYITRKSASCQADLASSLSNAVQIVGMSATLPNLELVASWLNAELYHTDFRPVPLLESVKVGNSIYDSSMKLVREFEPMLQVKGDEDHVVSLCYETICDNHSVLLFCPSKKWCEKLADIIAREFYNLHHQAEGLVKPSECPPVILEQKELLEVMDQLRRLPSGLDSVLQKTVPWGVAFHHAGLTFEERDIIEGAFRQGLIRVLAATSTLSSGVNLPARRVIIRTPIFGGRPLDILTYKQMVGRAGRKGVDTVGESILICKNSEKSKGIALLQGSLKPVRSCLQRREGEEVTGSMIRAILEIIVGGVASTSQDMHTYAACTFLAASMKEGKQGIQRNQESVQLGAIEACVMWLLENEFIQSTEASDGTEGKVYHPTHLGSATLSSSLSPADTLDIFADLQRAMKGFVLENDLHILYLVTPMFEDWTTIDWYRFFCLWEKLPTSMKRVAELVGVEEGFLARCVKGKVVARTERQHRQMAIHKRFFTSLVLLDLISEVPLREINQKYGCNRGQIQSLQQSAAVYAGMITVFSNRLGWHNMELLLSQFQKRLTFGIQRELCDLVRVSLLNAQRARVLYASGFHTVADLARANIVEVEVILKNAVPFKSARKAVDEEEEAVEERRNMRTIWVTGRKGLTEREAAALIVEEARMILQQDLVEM

[2] = target: T1, Polθ-hel WT (DNA polymerase theta …); test: EMSA
[3] = target: T1, Polθ-hel WT (DNA polymerase theta …); test: cryo-EM structure

Row | Binder | binding result [1] | binding result [2] | further results
1 | B1 | binds | – | –
2 | B2 | binds | – | –
3 | B3 | binds | – | –
4 | B4 | – | binds | –
5 | B5 | – | binds | –
6 | B6 | – | – | binding result [3]: binds
